# Assay results: patent US20260265360A1, “USE OF ANTI-FAM19A5 ANTAGONISTS FOR TREATING HEARING DISORDERS” (NEURACLE SCIENCE CO., LTD., priority 2023, published 2026)
# B1: 13B4: anti-FAM19A5 antibody; VH SEQ ID NO: 156, VL SEQ ID NO: 167 (antibody, V domains shown)
# VH: QVQLQESGPGLVKPSGTLSLNCAVSGGSISSSNWWSWVRQPPGKGLEWIGEIYHGGTTNYNPSLKGRVTMSVDKTKNQFSLRLSSVTAVDTAVYYCARWQLVGGLDVWGQGTTVTVSS
# VL: SYELTQPLSVSVSPGQTASITCSGDKLGNVYASWYQQKPGQSPTLVIYQDNKRPSGIPERFSGSNSGKTATLTISGTQALDEADYYCQAWDSSTAVFGGGTKLTVL
# modifications: 13B4 VH; 13B4 VL
# B2: 1-28: anti-FAM19A5 antibody; VH SEQ ID NO: 38, VL SEQ ID NO: 42 (antibody, V domains shown)
# VH: AVTLDESGGGLQTPGGALSLVCKASGFDFSDYGMGWVRQAPGKGLEWVAAIRSDGSNPSYGSAVKGRATISKDNGRSTVRLQLNNLRAEDTATYYCAKDGNGYCALDAYRSGGYSCGVYPGSIDAWGHGTEVIVSS
# VL: ALTQPSSVSANLEGTVEITCSGSGYGYGWYQQKSPGSAPVTVIYQNDKRPSDIPSRFSGSKSGSTGTLTITGVQVEDEAVYYCGSEDSSTLAGIFGAGTTLTVL
# modifications: 1-28 VH; 1-28 VL
# B3: P2-C12: anti-FAM19A5 antibody; VH SEQ ID NO: 155, VL SEQ ID NO: 166 (antibody, V domains shown)
# VH: QSLEESGGRLVTPGTPLTLTCTVSGFSLSTYAVTWVRQAPGKGLEWIGYINWRGGTSYANWAKGRFTISKTSSTTVDLKMTSPTTEDTATYFCARDASSGAAFGSYGMDPWGPGTLVTVSS
# VL: ELDMTQTPSSVSAAVGGTVTIKCQASQSISSYLSWYQQKPGQPPKLLIYEASKLASGVPSRFSGSGYGTEFTLTISDLECADAATYYCQQGYSSTNVWNAFGGGTNVEIK
# modifications: P2-C12 VH; P2-C12 VL
# B4: 1-65: anti-FAM19A5 antibody; VH SEQ ID NO: 37, VL SEQ ID NO: 41 (antibody, V domains shown)
# VH: AVTLDESGGGLQTPGGALSLVCKASGFTFSSYQMGWVRQAPGKGLEWVGVINKSGSDTSYGSAVKGRATISRDNGQSTVRLQLNNLRAEDTGTYFCAKGSASYITAATIDAWGHGTEVIVSS
# VL: ALTQPSSVSANPGETVKITCSGGGSSGYGYGWYQQKSPSSAPLTVIYWNDKRPSDIPSRFSGSKSGSTHTLTITGVQAEDEAVYFCGNDDYSSDSGYVGVFGAGTTLTVL
# modifications: 1-65 VH; 1-65 VL
# What was measured:
# [1] = biological target: FAM19A5 antigen (Homo sapiens, UniProt Q7Z5A7); assay: Cross-competition two-site sandwich ELISA; type: binding; conditions: antibodies 1-65, P2-A03, P2-F11, 13B4, 2-13, 3-2; cross-competition = S/N ratio lower than 2
# FAM19A5 antigen, sequence (Q7Z5A7 44-132): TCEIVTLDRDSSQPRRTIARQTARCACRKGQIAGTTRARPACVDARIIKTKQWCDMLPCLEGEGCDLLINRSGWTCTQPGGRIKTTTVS
# Method: The term “S/N” refers to the signal to noise ratio, which is measured as follows: [O.D. of 10 ng/ml antigen]/[O.D. of 0 ng/ml antigen].
# Next, a two-site sandwich ELISA was used as described below to assess whether the different anti-FAM19A5 antibodies with similar binding epitopes cross-compete with each other.
# First, the indicated anti-FAM19A5 antibodies were diluted in 1×PBS to a concentration of 10 μg/mL. The diluted anti-FAM19A5 antibodies (10 μg/mL in 1×PBS) (“capture antibody”) were used to coat the 96-well plates (100 μL/well) at 37° C. for approximately 1 hour. After the incubation, the plates were washed with the washing buffer (0.01% Tween-20/PBS; also called 0.01% PBST) for a total of five washes, blocked with the blocking solution (5% BSA/PBS; also called 5% PBSA) (250 μL/well) for one hour at 37° C., and then washed again. Next, 100 μg/mL of the FAM19A5 antigen (diluted in PBS containing 5% BSA, 0.01% Tween-20; also called 5% PBSAT; “diluent buffer) was added to each of the wells, and the 96-well plates were incubated for 2 hours at 37° C. After the incubations, the plates were washed using 0.01% PBST for a total of five washes. After the final wash, the indicated biotinylated anti-FAM19A5 antibodies (“detection antibody”) (diluted to lug/mL in 5% PBSAT) were added to the relevant wells (100 μL volume) and the plates were incubated for an additional 1 hour at 37° C. Afterwards, the plates were washed again with 0.01% PBST (five total washes). Next, 100 μL of the diluted (1/2000 in 5% PBSAT) Streptavidin-HRP (1 mg/mL, Sigma, USA) was added to the wells, and the plates were incubated for 30 minutes at room temperature. The plates were then washed and treated with 100 μL of the TMB substrate ([…], Thermo Fisher Scientific). After an additional 30-minute incubation at room temperature, the color change reaction was induced by the addition of the TMB substrate. This reaction was stopped using 50 μL of sulfuric acid (2N H2SO4), and the extent of color change was detected via absorption at 450 nm with reference wavelength at 620 nm using a 96 well microplate reader (Molecular Device).
# [2] = biological target: T1, FAM19A5 mutants M1 to M8 (Homo sapiens, UniProt Q7Z5A7, D98Q/K92L/K94R/L100E/P101L/Q95W/T93Q); assay: Epitope mapping ELISA with FAM19A5 mutants M1-M8; type: binding
# T1 construct: made in house; host or cells: phage display with helper phage
# T1 sequence (Q7Z5A7 26-125 isoform Q7Z5A7-2 K85L/T86Q/K87R/Q88W/D91Q/L93E/P94L): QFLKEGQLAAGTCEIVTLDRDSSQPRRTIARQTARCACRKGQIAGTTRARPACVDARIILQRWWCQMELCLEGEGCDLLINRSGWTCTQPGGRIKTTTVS
# Method: (§1) To further characterize the binding epitopes of the anti-FAM19A5 antibodies disclosed in the present disclosure, the amino acid sequences for the different FAM19 family members (i.e., FAM19A1-5) were aligned. […] The amino acid sequences of these regions were replaced with the consensus sequence of the corresponding regions for the FAM19A1-4 proteins. See Table 13 (the mutated amino acid residues are bolded and underlined).
# (§2) The mutant FAM19A5-expressing phages were prepared as follows. To prepare the media for phage culture, 55.6 ml of 2M Glucose (D-(+)-Glucose, Sigma), 5 mL of 1M MgCl2 (Magnesium chloride, Junsei) 1 mL of 34 mg/mL chloramphenicol (Sigma) were added to 2×YT media. Colonies obtained through mono-phage ELISA were selected and placed in 5 mL of prepared media (2×YT-GMC) to be cultured for 16 hours at 37° C. with shaking incubator (VS-8480, Vision). 100 μL of each culture was transferred to 10 mL 2×YT-GMC individually which were cultured at 37° C. in the incubator until detection value at O.D. 600 nm reached 0.5. Once detection value has reached 0.5 at O.D. 600 nm, 5 mL of each culture were obtained as samples to be infected. Following sample preparation, 50 μL of […] was added to individual samples then incubated at 37° C. without shaking for 30 minutes and with shaking for additional 30 minutes. Individual cultures were centrifuged for 15 minutes at 3,850 rpm using Micro centrifuge (Micro12, Hanil). The supernatants of centrifuged cultures were removed to be kept separate and replaced with 5 mL of 2×YT media containing 1 mL of IM IPTG (AG Scientific), 5 mL of 1M MgCl2.1 ml of 70 μg/μL kanamycin (Biopure) and 1 mL of Chloramphenicol. The resulting pellets were dispersed thoroughly in newly added media followed by incubation at 30° C. for 16 hours with stirring.
# [3] = biological target: T2, FAM19A5 mutants M1 to M8 (Homo sapiens, UniProt Q7Z5A7, D109K/G107E/I112P/L110T/N113D/R114N); assay: Epitope mapping ELISA with FAM19A5 mutants M1-M8; type: binding
# T2 construct: made in house; host or cells: phage display with helper phage
# T2 sequence (Q7Z5A7 26-125 isoform Q7Z5A7-2 G100E/D102K/L103T/I105P/N106D/R107N): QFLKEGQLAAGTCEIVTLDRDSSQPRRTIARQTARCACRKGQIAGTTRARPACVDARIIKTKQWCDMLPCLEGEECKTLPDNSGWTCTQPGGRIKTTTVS
# Method: as §1, §2
# [4] = biological target: T3, FAM19A5 mutants M1 to M8 (Homo sapiens, UniProt Q7Z5A7); assay: Epitope mapping ELISA with FAM19A5 mutants M1-M8; type: binding
# T3 construct: made in house; host or cells: phage display with helper phage
# T3 sequence (Q7Z5A7 with tags, fused parts or gaps isoform Q7Z5A7-2, change not shown): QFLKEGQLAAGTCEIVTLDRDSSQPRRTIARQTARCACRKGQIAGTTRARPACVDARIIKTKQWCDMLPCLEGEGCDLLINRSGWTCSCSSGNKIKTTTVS
# Method: as §1, §2
# [5] = tested on: FAM19A5 epitope fragment F2 mutant peptides; assay: ELISA binding to mutant F2 peptide fragments (alanine scanning); parameters: species or system human
# Description: FIGS. 25A-25J provide the results of the alanine scanning analysis, showing the specific amino acid residues in the epitope F2 fragment that are important for the binding of the various 3-2 antibody variants to FAM19A5 protein. FIGS. 25A, 25B, 25C, and 25D show the results for the following antibodies generated in HEK293F cells: (A) wild-type 3-2 antibody, (B) 1-30 antibody, (C) 1-32 antibody, and (D) 6-10 antibody, respectively. FIGS. 25E, 25F, 25G, 25H, 25I, and 25J show the results for the following antibodies generated in CHO cells: (E) 1-17 antibody, (F) 1-30 antibody, (G) 1-32 antibody, (H) 4-11 antibody, (I) 6-10 antibody, and (J) low-PI antibody, respectively. […] Binding of the antibodies to the different mutant peptides was measured using ELISA.
# Overlapping peptide fragments (F1-F6 epitope fragments; SEQ ID NOs: 178-183) of the human FAM19A5 protein were synthesized and conjugated to BSA (SEQ ID NOs: 322-327). Binding of the different anti-FAM19A5 antibodies to the BSA-conjugated peptide fragments F1-F6 was determined by Western blot analysis or ELISA assay. […] The membrane was incubated with the anti-FAM19A5 antibody (e.g., 1-65, […], 1-65-scFv-rabbit Fc-SSS), and the antigen-antibody complexes were detected with the appropriate secondary antibody conjugated with horse-radish peroxidase (anti-rabbit IgG (Fc specific)-HRP, 1:4000 dilution). […]
# [6] = biological target: T4, FAM19A5 mutants M1 to M8 (Homo sapiens, UniProt Q7Z5A7, D53C/P57N/Q56K/S54C/S55N); assay: Epitope mapping ELISA with FAM19A5 mutants M1-M8; type: binding
# T4 construct: made in house; host or cells: phage display with helper phage
# T4 sequence (Q7Z5A7 26-125 isoform Q7Z5A7-2 D46C/S47C/S48N/Q49K/P50N): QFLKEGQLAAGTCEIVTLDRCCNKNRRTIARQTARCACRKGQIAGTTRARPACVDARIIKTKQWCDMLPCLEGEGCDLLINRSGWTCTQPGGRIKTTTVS
# Method: as §1, §2
# [7] = tested on: human FAM19A5 protein epitope fragments F1-F6; assay: Epitope mapping: binding to BSA-conjugated FAM19A5 epitope fragments F1-F6 (Western blot / ELISA); conditions: for binding to epitope fragment F5: Western blot and/or ELISA
# Method: (§3) Overlapping peptide fragments (F1-F6 epitope fragments; SEQ ID NOs: 178-183) of the human FAM19A5 protein were synthesized and conjugated to BSA (SEQ ID NOs: 322-327). Binding of the different anti-FAM19A5 antibodies to the BSA-conjugated peptide fragments F1-F6 was determined by Western blot analysis or ELISA assay. For the Western blot analysis, BSA-conjugated FAM19A5 fragments F1-F6 were separated by SDS polyacrylamide gel electrophoresis and transferred to a nitrocellulose membrane by the standard procedure. The membrane was incubated with the anti-FAM19A5 antibody (e.g., 1-65, […], 1-65-scFv-rabbit Fc-SSS), and the antigen-antibody complexes were detected with the appropriate secondary antibody conjugated with horse-radish peroxidase (anti-rabbit IgG (Fc specific)-HRP, 1:4000 dilution). For the ELISA assay, the following protocol was used. FAM19A5 fragment F1-F6 (diluted to 1 μg/mL in 50 mM carbonate buffer (Biosesang) or to 20 μg/mL for high concentration analysis) were used to coat the wells of 96-well immuno plates (Thermo Scientific) (100 μL/well) overnight at 4° C. and then subsequently washed twice in 1×PBS. The plates were then blocked with the blocking buffer (100 μL/well) for 1 hour at room temperature. During the 1-hour incubation, the relavant anti-FAM19A5 antibodies were diluted to 1 μg/mL (or 20 μg/mL for high concentration analysis) in the diluent buffer. Once the plates were washed (2× using 1×PBS), the diluted anti-FAM19A5 antibodies were added to the appropriate wells, and the plates were incubated at room temperature for 1 hour. The plates were subsequently washed for a total of five times using the washing buffer. Next, the ODP substrate (prepared by dissolving one ODP tablet (O-phenylenediamine Dihydrochloride, Thermo) into 9 mL of sterilized deionized water and 1 mL of 10× stable Peroxide Stable buffer (Theromo)) was added to each of the wells, and the color change reaction was allowed to occur for 10 minutes. This reaction was stopped by adding 100 μL of 2N H2SO4 (Daejung) to the wells. The absorption value of each of the wells was detected at 492 nm using a 96-well microplate reader (Molecular Device).
# [8] = tested on: FAM19A5 epitope fragment F5 mutant peptides F5-1 to F5-8; assay: ELISA binding to mutant F5 peptide fragments (alanine substitution); parameters: species or system human
# Method: as §3
# Next, to identify the specific amino acid residues within the eptitope fragment F5 that the 1-65 and P2-C12 antibodies bind to, different amino acid residues of the F5 fragment were replaced with alanine as shown in Table 11 (below). The mutated residues are bolded and underlined. The binding affinity of the indicated anti-FAM19A5 antibodies were measured using an ELISA assay as described above.
Molecule,cross-competition with the other anti-FAM19A5 antibodies [1],binding to FAM19A5 mutant M6 [2],binding to FAM19A5 mutant M7 [3],binding to FAM19A5 mutant M8 [4],"binding to mutant F2 peptide fragments #1, 2, 6, and 8-13 [5]","binding to mutant F2 peptide fragments #3, 4, 5, and 7 [5]",binding to FAM19A5 mutant M2 [6],binding to the other fragments (F1-F4 and F6) ([7]; ELISA),binding to epitope fragment F5 [7],"binding to F5 mutant peptides #1, 6, and 8 [8]","binding to F5 mutant peptides #2, 3, 4, 5, and 7 [8]","binding to F5 fragment with D13, L14, I16 or R18 mutated to alanine ([8]; numbering per SEQ ID NO: 275)","binding to F5 mutant peptides #1, 5, 6, and 7 ([8]; similar affinity)"
B1,cross-competed with one another,failed to bind,reduced binding,failed to bind,–,–,–,–,–,–,–,–,–
B2,–,–,–,–,bound strongly,much reduced binding,failed to bind,–,–,–,–,–,–
B3,–,failed to bind,–,strongly binding,–,–,–,not significantly,strongly,"not to mutant peptides #1, 6, and 8",high binding,–,–
B4,cross-competed with one another,failed to bind,failed to bind,failed to bind,–,–,–,–,bound strongly,–,–,no longer able to bind,able to bind
